Assay results: patent US8329637B2, “Method for the treatment of automimmune diseases comprising administering rapamycin and IL-10” (priority 2002, dated 2012)

B1: IL-10: Human IL-10 (BD Biosciences), cytokine, 0.05 mg/Kg IP twice a day (protein, UniProt P22301 19-178, looked up)
Interleukin-10: SPGQGTQSENSCTHFPGNLPNMLRDLRDAFSRVKTFFQMKDQLDNLLLKESLLEDFKGYLGCQALSEMIQFYLEEVMPQAENQDPDIKAHVNSLGENLKTLRLRLRRCHRFLPCENKSKAVEQVKNAFNKLQEKGIYKAMSEFDIFINYIEAYMTMKIRN

What was measured:
[1] = system: Tr1 and CD4+CD25+ T cells; experiment: Tr cell content (cytokine profile by CBA, CD4+CD25+ by FACS) in spleen, PLN and IIC of treated NOD mice; assay type: cell-based, mouse; conditions: islet infiltrating cells (FIG. 11)
Description: Cytokine production by CD4^+ T cells (left panels) and percentages of CD4^+CD25^+ T cells (right panels) were evaluated by CBA and FACS analysis respectively, in the spleen (A), pancreatic lymph nodes (PLN) (B), and islet infiltrating cells (IIC) (C) of untreated-diabetic NOD mice (gray bars), rapamycin-treated mice (white bars), or rapamycin+IL-10-treated mice (black bars). […] The percentages of CD4^+CD25^+ T cells were higher in the spleen, PLN, and IIC of both mice treated with rapamycin alone or rapamycin+IL-10 (black bars). Therefore, in rapamycin+IL-10 treated mice, Tr1 cells are present in the spleen and CD4^+CD25^+ Tr cells are present in the spleen, lymph nodes, and pancreas.
The mechanisms underlying long-term tolerance were analysed in tolerant mice of 50 weeks of age or older. […] However, the proportion of splenic CD4^+ T cells producing IL-4 was the same in both untreated and treated mice. […]
Flow cytometry. Cells were stained with the indicated Abs (all from BD), and were analyzed with a FACScan flow cytometer equipped with CellQuest software (BD).
Cytokine measurement. Cytokines present in the collected supernatants were quantified by sandwich ELISA or flow cytometry based assay (CBA), using standard commercially available kits (BD). The percentage of cells producing specific cytokines was measured by intracellular staining. […]

NOD mice = experiment: Diabetes inhibition study in NOD mice; assay type: in vivo, mouse
Description: (B) Pre-diabetic mice were treated daily starting from 11 weeks of age with either rapamycin, rapamycin+IL-10 or IL-10 alone.
NOD mice were treated from 11 weeks to 31 weeks of age with IL-10 (IL-10, n=7 mice), or rapamycin (RAPA, n=13 mice), or rapamycin+IL-10 (RAPA/IL-10 n=16 mice), or vehicle (CNTR, n=22 mice). Diabetes incidence, monitored by glycemia levels, was stable at least up to 60 weeks of age. Administration of rapamycin alone reduced diabetes incidence from 95% to 46%.
In our proposed protocol, down-regulation of inflammation should be achieved by IL-10, and blockade of T effector cell expansion should be achieved by rapamycin. Neither IL-10 nor rapamycin prevent T cell priming and therefore they should allow induction of antigen-specific T regulatory cells, and as described below, IL-10 should promote the induction and expansion of Tr1 cells. We investigated the effect of rapamycin alone or in combination with IL-10 in treating autoimmunity in the NOD mouse a model for type I diabetes. […] Inhibition of type I diabetes was evaluated by treating NOD mice daily starting at 11 weeks of age (i.e. pre-diabetic mice with periinsultis) with rapamycin, rapamycin+IL-10, or IL-10 alone. […]
Mice. […] Glucose level in the tail venous blood was quantified using Glucometer Elite system (Bayer, Wuppertal, Germany). […]
Diabetes inhibition study. […] Diabetes incidence was monitored by blood glucose levels.

[2] = system: allogeneic C57BL/6 β-islets transplanted in diabetic Balb/c mice; experiment: Allogeneic β-islet transplantation (C57BL/6 into Balb/c), graft survival monitored by glycemia; assay type: in vivo, mouse
Description: Balb/c mice that had been rendered diabetic by streptozotocin injection were transplanted under the kidney capsule with purified allogeneic C57BL/6 β-islets. Mice were not treated (control, n=13 mice), or treated with rapamycin+antiTac+IL-10 (IL-10 protocol, n=16 mice) or rapamycin+antiTac+FK506 (Edmonton protocol, n=4 mice) for 30 days. Graft survival was monitored by glycemia levels. A graft was considered rejected when glycemia was higher than 250 mg/dl.
Balb/c mice that had been rendered diabetic by streptozotocin injection were transplanted under the kidney capsule with purified allogeneic C57BL/6 β-islets. Mice were not treated (control, n=8 mice), or treated with rapamycin in combination with IL-10 (rapa+IL10, n=8 mice) or IL10 only (n=4 mice). Graft survival was monitored by glycemia levels.
Allogeneic β-islet transplantation. A model of fully mismatched murine islet allotransplantation (C57BL/6 into Balb/C) was used.
Balb/c mice that had been rendered diabetic by streptozotocin injection were transplanted under the kidney capsule with purified allogeneic C57BL/6 β-islets.
Treatment of transplanted mice. […] Diabetes incidence was monitored by blood glucose levels.

| Molecule | CD4+CD25+ T cells as share of CD4+ T cells isolated from IIC [1] [%] | diabetes incidence (NOD mice; NOD mice treated from 11 to 31 weeks of age, vehicle 95% (FIG. 10A)) [%] | long-term graft survival ([2]; Balb/c mice treated for 30 days, without antiTac (FIG. 2)) [%] | prevention of graft rejection ([2]; Balb/c mice, FIG. 2) | effect on the development of diabetes (NOD mice; NOD mice treated from 11 to 31 weeks of age (FIG. 10A)) |
| --- | --- | --- | --- | --- | --- |
| CO[C@H]1C[C@@H]2CC[C@@H](C)[C@@](O)(O2)C(=O)C(=O)N2CCCC[C@H]2C(=O)O[C@H]([C@H](C)C[C@@H]2CC[C@@H](O)[C@H](OC)C2)CC(=O)[C@H](C)/C=C(\C)[C@@H](O)[C@@H](OC)C(=O)[C@H](C)C[C@H](C)/C=C/C=C/C=C/1C [rapamycin] | ~100 | 46 | – | – | – |
| B1 | – | – | 30 | not efficient in preventing graft rejection | no significant effect |
